Measured values from patent US20170281788A1.

Molecular target: insulin receptor (IR-B), P06213
Experiment: cell-based or functional assay

- potency (activity at the insulin subtype B receptor): 9.9
B1: GLP-1/insulin fusion GLP-DP8 (ligand)
chain: HAEGTFTSDVSSYLEEQAAREFIAWLVRGRGGPEHLCGAHLVDALYLVCGDRGFYFNDRGAGSSSRRGIVDECCHRSCDLRRLENYCN
